Test results as given in patent US20220204609A1.
Values belong to the binder of their own block, whether it stands above or below them.

What was measured:
[1] = molecular target: Claudin18.2 protein (Genscript Biotech) (UniProt P56856); experiment: ELISA, plate coated with Claudin18.2 antigen at 0.2 µg/mL, antibody at 1 µg/mL
[2] = molecular target: Claudin18.2 protein (Genscript Biotech) (UniProt P56856); experiment: ELISA, plate coated with Claudin18.2 antigen at 0.05 µg/mL, antibody at 1 µg/mL
[3] = molecular target: Claudin18.2 protein (Genscript Biotech) (UniProt P56856); experiment: ELISA, plate coated with Claudin18.2 antigen at 0.0125 µg/mL, antibody at 1 µg/mL
[4] = molecular target: Claudin18.2 on cells (human) (UniProt P56856); experiment: flow cytometry on 293T-Claudin18.2 cells, antibody at 3 µg/mL
[5] = molecular target: Claudin18.2 on cells (human) (UniProt P56856); experiment: flow cytometry on 293T-Claudin18.2 cells, antibody at 0.375 µg/mL
[6] = molecular target: Claudin18.2 on cells (human) (UniProt P56856); experiment: flow cytometry on 293T-Claudin18.2 cells, antibody at 1.5 µg/mL
[7] = molecular target: Claudin18.1 on cells (human) (UniProt P56856); experiment: flow cytometry on 293T-Claudin18.1 cells, antibody at 1.5 µg/mL
[8] = molecular target: Claudin18.2 on cells (human) (UniProt P56856); experiment: flow cytometry on NUGC4 cells, antibody at 1.5 µg/mL
[9] = molecular target: Claudin18.1 on cells (human) (UniProt P56856); experiment: flow cytometry on 293T-Claudin18.1 cells, antibody at 0.75 µg/mL
[10] = molecular target: Claudin18.2 on cells (human) (UniProt P56856); experiment: cell-based or functional assay
[11] = molecular target: Claudin18.2 on cells (human) (UniProt P56856); experiment: flow cytometry on 293T-Claudin18.2 cells, antibody at 0.75 µg/mL
[12] = molecular target: Claudin18.1 on cells (human) (UniProt P56856); experiment: flow cytometry on 293T-Claudin18.1 cells, antibody at 0.375 µg/mL
[13] = molecular target: Claudin18.1 on cells (human) (UniProt P56856); experiment: flow cytometry on 293T-Claudin18.1 cells, antibody at 3 µg/mL
[14] = molecular target: Claudin18.2 on cells (human) (UniProt P56856); experiment: flow cytometry on NUGC4 cells, antibody at 3 µg/mL
[15] = molecular target: Claudin18.2 on cells (human) (UniProt P56856); experiment: flow cytometry on NUGC4 cells, antibody at 0.75 µg/mL

OD450 [1]: 2.38 | OD450 [2]: 0.484 | OD450 [3]: 0.165
B1: CLDQ1-CA841-IgG1 (antibody, V domains shown)
VH: QVQLVQSGAEVKKPGSSVKVSCKASGGTFSSYAISWVRQAPGQGLEWMGRIIPILGIANYAQKFQGRVTVTADKSTSTAYMELSSLRSEDTAVYYCARERDNWDPYYYYYGMDVWGQGTTVTVSS
VL: DIQMTQSPSTLSASVGDRVTITCRASQSINSWLAWYQQKPGKAPKLLIYKASSLESGVPSRFSGSGSGTEFTLTISSLQPDDFATYYCQQYNSFPLTFGGGTKVEIKR

mean fluorescence intensity [4]: 33300 | mean fluorescence intensity [5]: 9360 | mean fluorescence intensity [6]: 34200 | OD450 [1]: 3.19 | mean fluorescence intensity [7]: 17900 | mean fluorescence intensity [8]: 20400 | OD450 [2]: 1.28 | mean fluorescence intensity [9]: 15200 | ADCC inhibition rate, %, antibody 0.5 µg/mL, 293T-Claudin18.2 target cells, PBMC effectors, LDH [10]: 15% | ADCC inhibition rate, %, antibody 5 µg/mL, 293T-Claudin18.2 target cells, PBMC effectors, LDH [10]: 25% | ADCC inhibition rate, %, antibody 50 µg/mL, 293T-Claudin18.2 target cells, PBMC effectors, LDH [10]: 45% | OD450 [3]: 0.492 | mean fluorescence intensity [11]: 17300 | mean fluorescence intensity [12]: 7960 | mean fluorescence intensity [13]: 34400 | mean fluorescence intensity [14]: 42600 | mean fluorescence intensity [15]: 15000
B2: CLDMix-CA818-IgG1 (antibody, V domains shown)
VH: GAATAVGRRTVEASETLSLTCAVYGGSFSGYYWSWIRQPPGKGLEWIGEINHSGSTNYNPSLKSRVTISVDTSKNQFSLKLSSVTAADTAVYYCARGPYDILTGYYPYWYFDLWGRGTLVTVSS
VL: DIVMTQSPSTLSASVGDRVTITCRASQGIRNDLGWYQQKPGKAPKLLIYDASSLQSGVPSRFSGSGYGTDFTLTISSLQPEDFATYYCLQDYNYPWTFGQGTKLEIKR
